The source of these data is patent US20240116985A1 (published 2024).

Starred links: 1 amine or outer side, 2 acyl side, 3 side chain; linkers in the order of their positions; H or OH if unused. Positions of bridges follow the written chain, without caps; N, C: chain ends. Non-standard residues stand in square brackets, D forms with d. Primed or numbered codes have the meaning given here. (PfPhAc)GA = (S)-2-amino-3-(N-(carboxymethyl)-2-(perfluorophenyl)acetamido)propanoic acid, O=C(Cc1c(F)c(F)c(F)c(F)c1F)N(CC(=O)[*:3])C[C@H](N[*:1])C(=O)[*:2]; PyrS2″ = (S)-3-amino-1-((pent-4-en-1-yloxy)carbonyl)pyrrolidine-3-carboxylic acid (stapling residue), C=CCCCOC(=O)N1CC[C@@](N[*:1])(C(=O)[*:2])C1; (Me2NPr)GA = (S)-2-amino-3-(N-(carboxymethyl)-3-(dimethylamino)propanamido)propanoic acid, CN(C)CCC(=O)N(CC(=O)[*:3])C[C@H](N[*:1])C(=O)[*:2]; (MorphAc)GA = (S)-2-amino-3-(N-(carboxymethyl)-2-morpholinoacetamido)propanoic acid, O=C(CN1CCOCC1)N(CC(=O)[*:3])C[C@H](N[*:1])C(=O)[*:2]; B5(4) = 2,2-bis(4-pentenyl)glycine = 2-amino-2-(pent-4-en-1-yl)hept-6-enoic acid (stitching residue), C=CCCCC(CCCC=C)(N[*:1])C(=O)[*:2]; PyrS2 = (S)-3-amino-1-((pent-4-en-1-yloxy)carbonyl)pyrrolidine-3-carboxylic acid, C=CCCCOC(=O)N1CC[C@@](N[*:1])(C(=O)[*:2])C1; PyrS1 = (S)-3-amino-1-((but-3-en-1-yloxy)carbonyl)pyrrolidine-3-carboxylic acid, C=CCCOC(=O)N1CC[C@@](N[*:1])(C(=O)[*:2])C1; B5(22) = 2-amino-2-(pent-4-en-1-yl)hept-6-enoic acid (two alkene side chains), C=CCCCC(CCCC=C)(N[*:1])C(=O)[*:2]; MorphAsn = (S)-2-amino-4-morpholino-4-oxobutanoic acid, O=C(C[C@H](N[*:1])C(=O)[*:2])N1CCOCC1; B5 = 2-amino-2-(pent-4-en-1-yl)hept-6-enoic acid, C=CCCCC(CCCC=C)(N[*:1])C(=O)[*:2]; B6 = 2-amino-2-(hex-5-en-1-yl)oct-7-enoic acid, C=CCCCCC(CCCCC=C)(N[*:1])C(=O)[*:2]; Me2Asn = listed as N4-methyl-L-asparagine, CNC(=O)C[C@H](N[*:1])C(=O)[*:2]; MeAsn = N4-methyl-L-asparagine, CNC(=O)C[C@H](N[*:1])C(=O)[*:2]; MeGln = N5-methyl-L-glutamine, CNC(=O)CC[C@H](N[*:1])C(=O)[*:2]; Phe(3-COOH) = N[C@@H](Cc1cccc(C(=O)O)c1)C(=O)O; Phe(2-CF3) = N[C@@H](Cc1ccccc1C(F)(F)F)C(=O)O; Bta = N[C@@H](Cc1csc2ccccc12)C(=O)O; αAllylPro = C=CC[C@@]1(C(=O)O)CCCN1; tBuAla = CC(C)(C)C[C@H](N)C(=O)O; 3Thi = N[C@@H](Cc1ccsc1)C(=O)O; Cha = N[C@@H](CC1CCCCC1)C(=O)O; 4ClBztA = not defined here; Aib = CC(C)(N)C(=O)O

For test [1], the target named is T1, B-cat-Halo (beta-catenin HaloTag fusion expressed in HEK293 cells) (UniProt P35222 1-781).
T1 sequence (looked up): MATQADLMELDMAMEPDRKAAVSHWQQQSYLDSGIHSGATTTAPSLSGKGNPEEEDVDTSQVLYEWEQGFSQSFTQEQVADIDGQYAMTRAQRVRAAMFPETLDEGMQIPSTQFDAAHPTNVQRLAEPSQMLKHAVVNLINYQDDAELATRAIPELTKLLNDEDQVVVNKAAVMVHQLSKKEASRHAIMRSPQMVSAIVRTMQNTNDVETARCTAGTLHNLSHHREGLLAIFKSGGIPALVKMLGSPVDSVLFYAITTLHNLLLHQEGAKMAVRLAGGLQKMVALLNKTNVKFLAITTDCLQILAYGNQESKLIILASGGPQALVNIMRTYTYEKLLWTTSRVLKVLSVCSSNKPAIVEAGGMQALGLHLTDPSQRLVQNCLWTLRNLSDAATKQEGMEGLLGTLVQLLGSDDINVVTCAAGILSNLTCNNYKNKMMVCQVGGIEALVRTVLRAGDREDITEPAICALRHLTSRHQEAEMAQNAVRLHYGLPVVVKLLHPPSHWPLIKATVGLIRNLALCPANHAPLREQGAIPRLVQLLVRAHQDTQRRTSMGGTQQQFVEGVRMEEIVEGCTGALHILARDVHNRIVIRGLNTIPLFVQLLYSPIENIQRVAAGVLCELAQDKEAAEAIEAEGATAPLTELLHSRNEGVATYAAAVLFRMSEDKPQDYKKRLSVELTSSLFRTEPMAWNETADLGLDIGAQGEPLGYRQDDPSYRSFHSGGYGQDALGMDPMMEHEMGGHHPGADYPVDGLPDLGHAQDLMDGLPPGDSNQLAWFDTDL
Nature of the test: cell-based or functional assay.

Test [2] concerns the target T2, B-cat-Halo (UniProt P35222 1-781).
T2 sequence (looked up): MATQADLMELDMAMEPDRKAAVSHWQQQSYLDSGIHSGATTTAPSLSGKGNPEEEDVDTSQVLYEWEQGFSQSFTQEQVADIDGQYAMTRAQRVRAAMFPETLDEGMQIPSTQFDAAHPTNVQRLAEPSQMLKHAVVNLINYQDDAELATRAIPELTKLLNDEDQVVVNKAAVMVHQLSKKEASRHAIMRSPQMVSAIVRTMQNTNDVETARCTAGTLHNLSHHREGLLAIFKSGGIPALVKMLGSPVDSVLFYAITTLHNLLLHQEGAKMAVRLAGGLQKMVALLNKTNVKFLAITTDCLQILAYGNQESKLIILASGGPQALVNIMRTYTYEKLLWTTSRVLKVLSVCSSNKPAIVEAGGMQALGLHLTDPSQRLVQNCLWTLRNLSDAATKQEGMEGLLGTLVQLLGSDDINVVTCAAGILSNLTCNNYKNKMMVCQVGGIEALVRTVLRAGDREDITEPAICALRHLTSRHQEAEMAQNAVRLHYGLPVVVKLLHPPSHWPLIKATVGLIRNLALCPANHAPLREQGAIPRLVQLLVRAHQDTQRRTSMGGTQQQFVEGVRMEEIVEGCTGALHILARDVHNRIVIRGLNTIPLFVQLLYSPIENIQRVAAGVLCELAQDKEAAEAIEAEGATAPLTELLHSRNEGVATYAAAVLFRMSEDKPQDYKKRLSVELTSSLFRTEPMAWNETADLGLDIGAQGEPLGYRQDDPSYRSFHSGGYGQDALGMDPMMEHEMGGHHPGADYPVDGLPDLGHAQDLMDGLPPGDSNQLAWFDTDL
Kind of test: cell-based or functional assay.

Take Ac-[αAllylPro]N[Cha][B5]DQ[Me2Gln]AFL[PyrS2]F[Bta][MorphAsn]-NH2 (staple 1-4, 4-11) [I-2501]: the “NanoBRET Abs IC50” value in test [1] was over 20 µM.
For the molecule Ac-[αAllylPro]D[tBuAla][B5(4)]D[Phe(3-COOH)]AAFL[PyrS2″][Phe(2-CF3)][7FBztA]Q-NH2 (staple 1-4, 4-11) [I-2488], the “NanoBRET Abs IC50” value in test [1] was 3.6 µM.
As to Ac-[αAllylPro]D[tBuAla][B5]NT[Aib]AF[Me2Asn][PyrS2][3Thi][Bta]N-NH2 (staple 1-4, 4-11) [I-2496], in test [1], the “NanoBRET Abs IC50” value was over 20 µM.
Ac-[αAllylPro]D[tBuAla][B5(22)]D[(PfPhAc)GA]AAFL[PyrS2][3Thi][Bta]Q-NH2 (staple 1-4, 4-11) [I-2241]: the “NanoBRET Abs IC50” value in test [2] worked out at 17.7 µM.
Take Ac-[αAllylPro]D[tBuAla][B5]NT[Aib]AFN[PyrS2][3Thi][Bta][MeAsn]-NH2 (staple 1-4, 4-11) [I-2495]: the “NanoBRET Abs IC50” value in test [1] was over 20 µM.
Take Ac-[αAllylPro]D[tBuAla][B5(22)]D[(Me2NPr)GA]AAFL[PyrS2][3Thi][Bta]Q-NH2 (staple 1-4, 4-11) [I-2234]: the “NanoBRET Abs IC50” value in test [2] was over 20 µM.
For the molecule Ac-[αAllylPro]D[tBuAla][B5(4)]D[Phe(3-COOH)]AAFL[PyrS2″][Phe(2-CF3)][4ClBztA]Q-NH2 (staple 1-4, 4-11; reading uncertain) [I-2490], in test [1], the “NanoBRET Abs IC50” value amounted to 6.4 µM.
For the molecule Ac-[αAllylPro]D[tBuAla][B5(4)]D[Phe(3-COOH)]AAFL[PyrS2″][Phe(2-CF3)][7ClBztA]Q-NH2 (staple 1-4, 4-11) [I-2486], the “NanoBRET Abs IC50” value in test [1] came out at 3.7 µM.
As to Ac-[αAllylPro]D[tBuAla][B6]D[Phe(3-COOH)]AAFL[PyrS1][Phe(2-CF3)][Bta]Q-NH2 (staple 1-4, 4-11) [I-2508], the “NanoBRET Abs IC50” value in test [1] worked out at 27.3 µM.
On the same count and under the same terms, to Ac-[αAllylPro]N[Cha][B5]DQ[MeGln]AFL[PyrS2]F[Bta][MorphAsn]-NH2 (staple 1-4, 4-11) [I-2502] belongs over 20 µM.
Consider Ac-[αAllylPro]D[tBuAla][B5(22)]D[(MorphAc)GA]AAFL[PyrS2][3Thi][Bta]Q-NH2 (staple 1-4, 4-11) [I-2239], for which, in test [2], the “NanoBRET Abs IC50” value was found to be 31.9 µM.
Take Ac-[αAllylPro]D[tBuAla][B5(4)]D[Phe(3-COOH)]QAFL[PyrS2″][Phe(2-CF3)][4ClBztA]A-NH2 (staple 1-4, 4-11; reading uncertain) [I-2491]: the “NanoBRET Abs IC50” value in test [1] amounted to 6.1 µM.
For the molecule Ac-[αAllylPro]D[tBuAla][B5]NT[Aib]AFN[PyrS2][3Thi][Bta][Me2Asn]-NH2 (staple 1-4, 4-11) [I-2494], the “NanoBRET Abs IC50” value in test [1] is over 20 µM.
